Broadly, the Km is the concentration of substrate that gives half-maximal velocity. Usually kcat stands for the maximal rate divided by the concentration of active sites. Usually kcat/Km stands for the turnover number divided by the Michaelis constant.

The source of these data is ChEMBL document CHEMBL1250451, “Mechanistic insights into a Ca2+-dependent family of alpha-mannosidases in a human gut symbiont” (Nat Chem Biol, 2010).

Holding throughout (assay type): protein assay
Substrate in data set [1]: O=[N+]([O-])c1ccc(O[C@H]2O[C@H](CO)[C@@H](O)[C@H](O)[C@@H]2O)cc1
Briefly: (§1) Activity of Bacteroides thetaiotaomicron GH92 alpha-mannosidase GH92 alpha-mannosidase 3784 assessed as mannose release after 16 hrs by HPLC.

Substrate in data set [2]: OC[C@H]1O[C@H](O[C@H]2[C@@H](O)[C@H](O)[C@@H](CO)O[C@@H]2O)[C@@H](O)[C@@H](O)[C@@H]1O
The data set is described as §1.

Substrate in data set [3]: O=[N+]([O-])c1ccc(O[C@H]2O[C@H](CO)[C@@H](O)[C@H](O)[C@@H]2O)cc1
Briefly: (§2) Ratio of Kcat to Km for Bacteroides thetaiotaomicron GH92 alpha-mannosidase GH92 alpha-mannosidase 3784 assessed as mannose release after 16 hrs by HPLC.

Substrate in data set [4]: OC[C@H]1O[C@H](O[C@H]2[C@@H](O)[C@H](O)[C@@H](CO)O[C@@H]2O)[C@@H](O)[C@@H](O)[C@@H]1O
The data set is described as §2.

Substrate in data set [5]: O=[N+]([O-])c1ccc(O[C@H]2O[C@H](CO)[C@@H](O)[C@H](O)[C@@H]2O)cc1
Put plainly: Activity of Bacteroides thetaiotaomicron GH92 alpha-mannosidase GH92 alpha-mannosidase 3963 assessed as mannose release after 16 hrs by HPLC.

Substrate in data set [6]: O=[N+]([O-])c1ccc(O[C@H]2O[C@H](CO)[C@@H](O)[C@H](O)[C@@H]2O)cc1
Briefly: Ratio of Kcat to Km for Bacteroides thetaiotaomicron GH92 alpha-mannosidase GH92 alpha-mannosidase 3963 assessed as mannose release after 16 hrs by HPLC.

Substrate in data set [7]: O=[N+]([O-])c1ccc(O[C@H]2O[C@H](CO)[C@@H](O)[C@H](O)[C@@H]2O)cc1
Briefly: Ratio of Kcat to Km for Bacteroides thetaiotaomicron GH92 alpha-mannosidase GH92 alpha-mannosidase 3991 assessed as mannose release after 16 hrs by HPLC.

Substrate in data set [8]: O=[N+]([O-])c1ccc(O[C@H]2O[C@H](CO)[C@@H](O)[C@H](O)[C@@H]2O)cc1
Put plainly: Activity of Bacteroides thetaiotaomicron GH92 alpha-mannosidase GH92 alpha-mannosidase 3991 assessed as mannose release after 16 hrs by HPLC.

Substrate in data set [9]: O=[N+]([O-])c1ccc(O[C@H]2O[C@H](CO)[C@@H](O)[C@H](O)[C@@H]2O)cc1
Put plainly: (§3) Ratio of Kcat to Km for Bacteroides thetaiotaomicron GH92 alpha-mannosidase GH92 alpha-mannosidase 3965 assessed as mannose release after 16 hrs by HPLC.

Substrate in data set [10]: OC[C@H]1O[C@H](O[C@H]2[C@H](O)[C@H](O)[C@@H](O)O[C@@H]2CO)[C@@H](O)[C@@H](O)[C@@H]1O
The data set is described as §3.

Substrate in data set [11]: O=[N+]([O-])c1ccc(O[C@H]2O[C@H](CO)[C@@H](O)[C@H](O)[C@@H]2O)cc1
Put plainly: (§4) Activity of Bacteroides thetaiotaomicron GH92 alpha-mannosidase GH92 alpha-mannosidase 3965 assessed as mannose release after 16 hrs by HPLC.

Substrate in data set [12]: OC[C@H]1O[C@H](O[C@H]2[C@H](O)[C@H](O)[C@@H](O)O[C@@H]2CO)[C@@H](O)[C@@H](O)[C@@H]1O
Described as §4.

Substrate in data set [13]: O=[N+]([O-])c1ccc(O[C@H]2O[C@H](CO)[C@@H](O)[C@H](O)[C@@H]2O)cc1
Put plainly: (§5) Ratio of Kcat to Km for Bacteroides thetaiotaomicron GH92 alpha-mannosidase GH92 alpha-mannosidase 3962 assessed as mannose release after 16 hrs by HPLC.

Substrate in data set [14]: OC[C@H]1O[C@H](O[C@H]2[C@@H](O)[C@H](O)[C@@H](CO)O[C@@H]2O)[C@@H](O)[C@@H](O)[C@@H]1O
Described as §5.

Substrate in data set [15]: O=[N+]([O-])c1ccc(O[C@H]2O[C@H](CO)[C@@H](O)[C@H](O)[C@@H]2O)cc1
Put plainly: (§6) Activity of Bacteroides thetaiotaomicron GH92 alpha-mannosidase GH92 alpha-mannosidase 3962 assessed as mannose release after 16 hrs by HPLC.

Substrate in data set [16]: OC[C@H]1O[C@H](O[C@H]2[C@@H](O)[C@H](O)[C@@H](CO)O[C@@H]2O)[C@@H](O)[C@@H](O)[C@@H]1O
The data set is described as §6.

B1: Alpha-1,2-mannosidase (BT_3784) (Bacteroides thetaiotaomicron), Q8A182 (protein)
chain: MKTHFSFKHLLFIGGAVLYSMQISAVKNPVDYVSTLVGTQSKFELSTGNTYPATALPWGMNFWTPQTGKMGDGWAYTYNADKIRGFKQTHQPSPWMNDYGQFSIMPITGGLVFDQDQRASWFSHKAEVAKPYYYKVYLADHDVTTELVPTERAAMFRFTYPETKNAYVVIDAFDKGSYVKVIPEENKIIGYSTKNSGGVPENFKNYFVIQFDKPFTFTSGVKENNILPNETEVQGNHTGAIIGFATQKGEIVHARVASSFISYEQAELNLKELGKDSFDQLVTKGKDIWNREMSKVDVEDDNIDNLRTFYSCLYRSMLFPRSFYEIDAKGQVVHYSPYNGKVLPGYMFTDTGFWDTFRCLFPFLNLMYPSMNQKMQEGLVNAYLESGFLPEWASPGHRDCMVGNNSASVVADAYIKGLRGYDIETLWEALKHDANAHLRGTASGRLAYDAYNKLGYVPNNIGIGQNVARTLEYAYNDWTIYTLGKKLGKPASEIDIFKQRALNYKNVYHPKRKLMVGKDDKGVFNPKFDAVDWSGEFCEGNSWHWSFCVFHDPQGLIDLMGGKKEFNNMMDSVFVIPGKQGMESRGMIHEMREMQVMNMGQYAHGNQPIQHMVYLYNYSGEPWKAQHWVREIMDKLYTAGPDGYCGDEDNGQTSAWYVFSALGFYPVCPGTDQYILGTPLFKSAKLHLENGKTVTIKASNNNTDNRYVKDMKVNGKAFTRNYLTHDQLLKGANIQYQMSPTPNKQRGTTEKDIPYSLSFE
For the protein B1, the Km in data set [1] was determined as 6900 µM; in [2], 2300 µM. Moreover, the kcat in [1] came to 0.08 s⁻¹; in [2], 0.45 s⁻¹. In addition, the kcat/Km was determined as 11.5 M⁻¹ s⁻¹ in [3] and 183 M⁻¹ s⁻¹ in data set [4].

B2: Glycoside hydrolase family 92 (BT_3963) (Bacteroides thetaiotaomicron), Q8A0Q8 (protein)
chain: MNKMKKKVLMMTMAAVTLSAVAQQPVDYVNPIIGTNGMGHTFPGACTPFGWVQLSPDTDTIPHNVNGAYQKNAYEYCAGYQYRDKTIVGFSHTHLSGTGHSDLGDILLMPAVGDVKLNPGRADHPEEGYRSRFDHATEKATPGYYEVMLDDYGIKAQLTATQRTGVHKYTFPKGKDGHLILDLVHGIYNYDGKVLWANLRVENDTLLTGYRITNGWARTNYTYFAISLSQPIKDYGYKDKEKVLYNGFWRRFKLEKNFPEITGRKIVAYFNFETAKDPELVVKVALSAVSTEGAVKNLRAEASGKSFEQLAEAARTDWNNELDHFEIEGTPDQKAMFYTSLYHTMINPSVYMDVDGSYRGLDHNIHQAKGFTNYTIFSLWDTYRAEHPFLNLVKPERNADMVESMIKHEQQSVHGMLPIWSLMGNENWCMSGYHAVSVLADAITKGVFSNVDEALSAMVSTSTVPYYEGVADYMKLGYIPLDKSGTAASSTLEYAYDDWTIYQTALKAGNKEIADTYRKRALNYRNIYDTSIGFARPRYSDGTFKKEFDVLQTYGEGFIEGNSWNFSFHVPHDVFGMIDLMGGEKTFVQKLDELFSMHLPEKYYEHNEDITEECLVGGYVHGNEPSHHVPYLYAWTSQPWKTQYWLREILNKMYKNDINGLGGNDDCGQMSAWYLFSVMGFYPVCPGTDQYVLGAPYLPYLKLTLPNGKTLEIKAPGVSDKKRYVQSLKLNGESYDKMYITHEDILKGGVLEFKMSASPNKRRGVSVQDKPYSLTNGIN
Turning to B2, in data set [5], the Km was 790 µM and the kcat was determined as 0.00045 s⁻¹. Further, the kcat/Km in data set [6] was determined as 0.567 M⁻¹ s⁻¹.

B3: Alpha-1,2-mannosidase (BT_3991) (Bacteroides thetaiotaomicron), Q8A0N0 (protein)
chain: MKLKTLLIGCFGGFIMLNSCTESPSVKDYSAYVNPFIGTGGHGHTFPGAVVPHGMIQPSPDTRIDGWDACSGYYYDDNTINGFSHTHVSGTGCCDYGDVLLMPTVGKPQYLTTDPESQKLAYASAFSHENETAEPGYYSVFLDTYQVKAEITATKRGAIHRYTFPESTESGFIIDLDYSLQRQTNYEMEIEVISDTEICGHKKTTYWAFDQYINFYAKFSKPFAYTLITDSVTMDNGKRLPVCKAVLHFNTKKDEEVLVKVGVSAVDIAGARKNVESEIPEWDFDKVRKDARTAWNNYLSKIDITTSDKEDKTIFYTALYHTAISPNLFTDADGRYLGMDLEVHQGDTINPLYTVFSLWDTFRALHPLMTIIDPNLNNQFINSLIRKHQEGGIYPMWDLASNYTGTMIGYHAVPVIVDAYMKGYRNFDAHEAYKASLRAAEYDTTGIKCPDLVLPHLMPKAKYYKNAIGYIPCDRENESVAKALEYAYDDWCISIFAEAMNDFENKAKYERFAKAYEFYFDKSTRFMRGLDSNGEWRTPFNPRASTHRSDDYCEGTAWQWTWFVPHDVEGLVKLMGGEDAFVEKLDSLFTVDSSLDGETTSADISGLIGQYAHGNEPSHHVIHLYNYVNRPWRTQELVDSVYRSQYANNVDGLSGNEDCGQMSAWYILNSMGFYQVCPGKPVYSIGRPAFDKAVINLPGEKTFSIVAKNNSKSNKYIESVLLNGKPLDTPFFGHQDIVAGGVMEIRMTDHPTQWGVRQ
Take B3: the kcat/Km in data set [7] was determined as 0.917 M⁻¹ s⁻¹. In data set [8], the Km was 2700 µM and the catalytic constant (kcat) came out at 0.0025 s⁻¹.

B4: Alpha-1,2-mannosidase (BT_3965) (Bacteroides thetaiotaomicron), Q8A0Q6 (protein)
chain: MAQTEKLTDYVNPFVGTDGYGNVYPGAQIPFGGIQISPDTDSRFYDAASGYKYNHLTLMGFSLTHLSGTGIPDLGDFLFIPGTGEMKLEPGTHEDPDQGYRSRYSHDKEWASPNYYAVELADYGVKAEMTSGVRSGMFRFTYPESDNAFIMIDMNHTLWQSCEWSNLRMINDSTITGYKLVKGWGPERHVYFTATFSKKLTGLRFVQDKKPVIYNTSRFRSSYEAWGKNLMACISFDTKAGEEVTVKTAISAVSTDGARNNMKELDGLTFNELRAKGEALWEKELGKYTLTADRKTKETFYTSAYHAALHPFIFQDSDGQFRGLDKNIEKAEGFTNYTVFSLWDTYRALHPWFNLVQQEVNADIANSMLAHYDKSVEKMLPIWSFYGNETWCMIGYHAVSVLADMIVKEVKGFDYERAYEAMKTTAMNSNYDCLPEYREMGYVPFDKEAESVSKTLEYAYDDYCIAQAAKKLGKEDDYHYFLNRALSYQTLIDPETKYMRGRDSKGDWRTPFTPVAYQGPGSVHGWGDITEGFTMQYTWYVPQDVQGYINEAGKELFRKRLDELFTVELPDDIPGAHDIQGRIGAYWHGNEPCHHVAYLYNYLKEPWKCQKWIRTIVDRFYGNTPDALSGNDDCGQMSAWYMFNCIGFYPVAPSSNIYNIGSPCAEAITVRMSNGKNIEMTADNWSPKNLYVKELYVNGKKYDKSYLTYDDIRDGVKLRFVMSGKPNYKRAVSDEAVPPSISLPEKTMKYKSSIGF
As for B4, the kcat/Km in [9] was determined as 233 M⁻¹ s⁻¹; in data set [10], 183 M⁻¹ s⁻¹. Further, the figures for the Km in [11] and in data set [12] were 1000 µM and 8000 µM, respectively. For the same protein, the catalytic constant (kcat) in data set [11] was 0.233 s⁻¹; in data set [12] it was 1.48 s⁻¹.

B5: Glycoside hydrolase family 92 (BT_3962) (Bacteroides thetaiotaomicron), Q8A0Q9 (protein)
chain: MNKQKLLSITMTLLLGVSSIFAQKQPVDYVNPLMGTDSKISLSNGNTYPAIALPWGMNFWMPQTGKMGDGWAYTYASDKIRGFKQTHQPSPWINDYGQFSIMPMTKQLKIDQDSRASWFSHKAEKATPYYYSVYLSEYNMTTEIAPTERCAYFRFTFPEASDAYVVVDAFDRGSYVKVIPEENKIVGYTTRNSGGVPQNFRNYFVIEFDKPFTFNKVWADYHLVETHLELQSNHVGAAIGFSTKKGEQVHAKVASSFISPEQAELNLKEIGNKTFEQTKEAGRKAWNDVLGRIKVEDDDENRMRTFYSCLYRSVLFPRMFHEVNAKGETVHYSPYNGEIRPGYMFTDTGFWDTFRCLFPFVNLIYPSMGEKMQEGLLNTYLESGFFPEWASPGHRGCMVGNNSASVVADAFMKNVTKADAEKMYEGLLKGANSVHPRVSTTGRRGYEYYNKLGYVPYDVKINENAARTLEYAYDDWCIYRMGEKLGRPAEELELYKSRSQNYRNLFDPETKLMRGKNADGTFQTPFNPFKWGDAFTEGNSWHYTWSVFHDVQGLADLMGGRKMFVSMLDSVFNLPPIFDDSYYGGVIHEIREMEIANMGNYAHGNQPIQHMIYLYNYAGEPWKAQYWLREVMNRLYFATPDGYCGDEDNGQTSAWYVFTALGFYPVCPGSNEYVMGAPYFKKATITLENGKKLEISAPKNSDANRYIRSLNYNGKNYTKNYLNHFDLLKGGRLVFDMDNKPNKGRGINESDFPYSFSRDNK
In the case of B5, the figures for the kcat/Km in data set [13] and in [14] were 56.7 M⁻¹ s⁻¹ and 31700 M⁻¹ s⁻¹, respectively. Besides, the Km in data set [15] is 5000 µM; in [16], 430 µM. In addition, the kcat in data set [15] was found to be 0.283 s⁻¹; in [16] it was 13.7 s⁻¹.
